Results reported in patent US20200223889A1 (Novo Nordisk, published 2020).
Positions of bridges follow the written chain, without caps; N, C: chain ends. Non-standard residues stand in square brackets, D forms with d.

B1: Chem. 58 (peptide)
peptide: cyclo(CAH[dF]K(Ac)WCAK[dK]KW)
modifications: disulfide 1-7
SMILES: CC(=O)NCCCC[C@@H]1NC(=O)[C@@H](Cc2ccccc2)NC(=O)[C@H](Cc2c[nH]cn2)NC(=O)[C@H](C)NC(=O)[C@@H]2CSSC[C@H](NC(=O)[C@H](Cc3c[nH]c4ccccc34)NC1=O)C(=O)N[C@@H](C)C(=O)N[C@@H](CCCCN)C(=O)N[C@H](CCCCN)C(=O)N[C@@H](CCCCN)C(=O)N[C@@H](Cc1c[nH]c3ccccc13)C(=O)N2
notes: also called c[c[Cys-Ala-His-D-Phe-AcLys-Trp-Cys]-Ala-Lys-D-Lys-Lys-Trp]
B2: Chem. 77 (peptide)
peptide: cyclo(CKH[dF]HWCKKKKW)
modifications: disulfide 1-7
SMILES: NCCCC[C@@H]1NC(=O)[C@H](CCCCN)NC(=O)[C@H](CCCCN)NC(=O)[C@@H]2CSSC[C@H](NC(=O)[C@H](Cc3c[nH]c4ccccc34)NC(=O)[C@H](CCCCN)NC1=O)C(=O)N[C@@H](CCCCN)C(=O)N[C@@H](Cc1c[nH]cn1)C(=O)N[C@H](Cc1ccccc1)C(=O)N[C@@H](Cc1c[nH]cn1)C(=O)N[C@@H](Cc1c[nH]c3ccccc13)C(=O)N2
notes: also called c[c[Cys-Lys-His-D-Phe-His-Trp-Cys]-Lys-Lys-Lys-Lys-Trp]
B3: Chem. 96 (peptide)
peptide: cyclo(CPH[dF]HWCAHKKR)
modifications: disulfide 1-7
SMILES: C[C@@H]1NC(=O)[C@@H]2CSSC[C@H](NC(=O)[C@H](CCCNC(=N)N)NC(=O)[C@H](CCCCN)NC(=O)[C@H](CCCCN)NC(=O)[C@H](Cc3c[nH]cn3)NC1=O)C(=O)N1CCC[C@H]1C(=O)N[C@@H](Cc1c[nH]cn1)C(=O)N[C@H](Cc1ccccc1)C(=O)N[C@@H](Cc1c[nH]cn1)C(=O)N[C@@H](Cc1c[nH]c3ccccc13)C(=O)N2
notes: also called c[c[Cys-Pro-His-D-Phe-His-Trp-Cys]-Ala-His-Lys-Lys-Arg]
B4: Chem. 78 (peptide)
peptide: cyclo(CKH[dF]HWCAKKKR)
modifications: disulfide 1-7
SMILES: C[C@@H]1NC(=O)[C@@H]2CSSC[C@H](NC(=O)[C@H](CCCNC(=N)N)NC(=O)[C@H](CCCCN)NC(=O)[C@H](CCCCN)NC(=O)[C@H](CCCCN)NC1=O)C(=O)N[C@@H](CCCCN)C(=O)N[C@@H](Cc1c[nH]cn1)C(=O)N[C@H](Cc1ccccc1)C(=O)N[C@@H](Cc1c[nH]cn1)C(=O)N[C@@H](Cc1c[nH]c3ccccc13)C(=O)N2
notes: also called c[c[Cys-Lys-His-D-Phe-His-Trp-Cys]-Ala-Lys-Lys-Lys-Arg]
B5: Chem. 95 (peptide)
peptide: cyclo(CPH[dF]HWCAKKHR)
modifications: disulfide 1-7
SMILES: C[C@@H]1NC(=O)[C@@H]2CSSC[C@H](NC(=O)[C@H](CCCNC(=N)N)NC(=O)[C@H](Cc3c[nH]cn3)NC(=O)[C@H](CCCCN)NC(=O)[C@H](CCCCN)NC1=O)C(=O)N1CCC[C@H]1C(=O)N[C@@H](Cc1c[nH]cn1)C(=O)N[C@H](Cc1ccccc1)C(=O)N[C@@H](Cc1c[nH]cn1)C(=O)N[C@@H](Cc1c[nH]c3ccccc13)C(=O)N2
notes: also called c[c[Cys-Pro-His-D-Phe-His-Trp-Cys]-Ala-Lys-Lys-His-Arg]
B6: Chem. 84 (peptide)
peptide: cyclo(C[dK]H[dF]HWCAKKKW)
modifications: disulfide 1-7
SMILES: C[C@@H]1NC(=O)[C@@H]2CSSC[C@H](NC(=O)[C@H](Cc3c[nH]c4ccccc34)NC(=O)[C@H](CCCCN)NC(=O)[C@H](CCCCN)NC(=O)[C@H](CCCCN)NC1=O)C(=O)N[C@H](CCCCN)C(=O)N[C@@H](Cc1c[nH]cn1)C(=O)N[C@H](Cc1ccccc1)C(=O)N[C@@H](Cc1c[nH]cn1)C(=O)N[C@@H](Cc1c[nH]c3ccccc13)C(=O)N2
notes: also called c[c[Cys-D-Lys-His-D-Phe-His-Trp-Cys]-Ala-Lys-Lys-Lys-Trp]

Molecular target: T1, human melanocortin 4 receptor (human, UniProt P32245 1-332)
Test: cell-based or functional assay

T1 sequence (P32245 whole entry): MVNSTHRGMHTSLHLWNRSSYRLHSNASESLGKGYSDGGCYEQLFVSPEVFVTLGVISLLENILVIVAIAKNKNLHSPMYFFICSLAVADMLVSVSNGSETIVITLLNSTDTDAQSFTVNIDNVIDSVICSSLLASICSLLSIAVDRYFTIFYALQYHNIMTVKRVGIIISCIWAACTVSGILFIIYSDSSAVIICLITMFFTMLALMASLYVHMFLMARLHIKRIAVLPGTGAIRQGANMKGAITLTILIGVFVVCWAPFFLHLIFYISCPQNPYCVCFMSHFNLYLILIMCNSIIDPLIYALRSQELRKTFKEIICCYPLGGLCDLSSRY

| Binder | MC4R cAMP EC50 [nM] |
| --- | --- |
| B1 | 0.11 |
| B2 | 0.46 |
| B3 | 0.04 |
| B4 | 0.04 |
| B5 | 0.22 |
| B6 | 0.59 |

Molecular target: human melanocortin 1 receptor (human, UniProt Q01726 1-317)
Test: cell-based or functional assay

human melanocortin 1 receptor, sequence (Q01726 whole entry): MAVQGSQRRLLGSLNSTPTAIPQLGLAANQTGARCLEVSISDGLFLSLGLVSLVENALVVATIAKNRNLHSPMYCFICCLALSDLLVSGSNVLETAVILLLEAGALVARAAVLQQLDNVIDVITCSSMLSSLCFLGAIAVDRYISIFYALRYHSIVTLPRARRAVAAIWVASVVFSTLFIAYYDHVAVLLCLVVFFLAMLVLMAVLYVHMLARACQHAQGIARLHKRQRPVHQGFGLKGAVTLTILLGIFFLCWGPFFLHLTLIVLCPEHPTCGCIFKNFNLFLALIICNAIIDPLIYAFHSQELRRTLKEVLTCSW

| Binder | MC1R cAMP EC50 [nM] |
| --- | --- |
| B1 | 3.93 |
| B2 | 49.8 |
| B3 | 57.7 |
| B4 | 3.8 |
| B5 | 87.7 |
| B6 | 43.4 |

Molecular target: T1, human melanocortin 4 receptor
Test: competition with 125-NDP-α-MSH, BHK human MC4R membranes
Procedure: In order to assess the binding affinity of the selected compounds for the human MC4R competitive binding assays was performed with radiolabeled NDP-alpha MSH (¹²⁵NDP-α-MSH).
The assay was performed in 96-well filterplates (Unifilter) using BHK cells stably expressing the human MC4 receptor.
The BHK cell membranes were prepared from frozen or fresh cells that were homogenized in 20 mM HEPES pH 7.1, 5 mM MgCl₂, 1 mg/ml bacitracin (buffer 1) and centrifuged at 15000 rpm at 4° C., 10 min in a Sorvall RC 5B plus, SS-34 rotor. The supernatant was discarded, and the pellets were re-suspended in buffer 1, homogenized and centrifuged two more times. The final pellets were re-suspended in buffer 1 and the protein concentration was measured and adjusted with buffer 1 to 5 mg/ml and the membrane preparation was kept at −80° C. until assay. The assay was run on a dilution of this cell membrane suspension without any further preparation. The suspension was diluted to give maximally 10% specific binding, i.e. to approx. 50-100 fold dilution, optimized after each membrane preparation. The assay was performed in a total volume of 200 μl: 50 μl of cell suspension, 50 μl of ¹²⁵NDP-α-MSH (apx. […] in final concentration), 50 μl of test compound and 50 μl binding buffer were mixed and incubated for 2 h at 25° C. (binding buffer: 25 mM HEPES, pH 7.0, 1 mM CaCl₂), 1 mM MgSO₄, 1 mM EGTA, 0.005% Tween™ 20 and 0.1% HSA or, alternatively, 0.1% ovalbumin (Sigma; catalogue No. A-5503)). Test compounds were dissolved in 100% DMSO and diluted in binding buffer in a dose range from 1 μM to 0.001 nM. Radiolabelled ligand and membranes were diluted in binding buffer. The incubation was stopped by dilution with 8×100 μl ice-cold 0.9% NaCl. The radioactivity retained on the filters was counted using a Packard Topcounter. The data were analysed by non-linear regression analysis of binding curves, using the Windows™ program GraphPad™ Prism (GraphPad Software, USA).

| Binder | Ki [nM] |
| --- | --- |
| B1 | 0.09 |
| B2 | 0.72 |
| B3 | 0.04 |
| B4 | 0.02 |
| B5 | 0.07 |
| B6 | 0.19 |
